Source: publication PMC6602975

Molecular target: H4K16ac nucleosome
Assay: EMSA
Settings: chain shown with the change

B1: Sir3 BAH domain (construct 1–214), P06701 D205N (protein)
chain: MAKTLKDLDGWQVIITDDQGRVIDDNNRRRSRKRGGENVFLKRISDGLSFGKGESVIFNDNVTETYSVYLIHEIRLNTLNNVVEIWVFSYLRWFELKPKLYYEQFRPDLIKEDHPLEFYKDKFFNEVNKSELYLTAELSEIWLKDFIAVGQILPESQWNDSSIDKIEDRDFLVRYACEPTAEKFVPIDIFQIIRRVKEMEPKQSNEYLKRVSVP
Kd: 810 nM
